According to patent US20240294650A1 (Alector, published 2024):

T1: recombinant murine MerTK extracellular domain (mouse, UniProt Q60805 19-497)
T1 construct: also called Mouse MerTK; murine MerTK ECD; not shown: polyHis or TEVS/Thrombin/murine IgG2a-Fc tag
T1 sequence: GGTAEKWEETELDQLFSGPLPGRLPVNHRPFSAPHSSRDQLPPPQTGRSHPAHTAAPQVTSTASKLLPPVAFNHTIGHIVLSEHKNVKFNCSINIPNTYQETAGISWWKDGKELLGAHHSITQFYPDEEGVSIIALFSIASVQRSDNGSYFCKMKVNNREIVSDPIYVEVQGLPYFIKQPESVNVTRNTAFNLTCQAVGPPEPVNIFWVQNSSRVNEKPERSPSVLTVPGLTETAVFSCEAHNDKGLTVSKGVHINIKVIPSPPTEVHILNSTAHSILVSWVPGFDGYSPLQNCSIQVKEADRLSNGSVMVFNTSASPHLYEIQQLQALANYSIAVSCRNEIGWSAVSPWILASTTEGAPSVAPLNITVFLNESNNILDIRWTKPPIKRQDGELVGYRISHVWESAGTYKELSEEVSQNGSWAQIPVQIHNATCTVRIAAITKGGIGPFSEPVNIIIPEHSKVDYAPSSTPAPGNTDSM

T2: MerTK N-terminal ECD Half-and-half chimera (human)
T2 construct: tested as culture supernatant; also called MerTK N-term half-and-half chimera; MerTK N-terminal ECD (NT-Ig1-Ig2) + Axl C-terminal ECD (FN1-FN2-JM)
T2 chain: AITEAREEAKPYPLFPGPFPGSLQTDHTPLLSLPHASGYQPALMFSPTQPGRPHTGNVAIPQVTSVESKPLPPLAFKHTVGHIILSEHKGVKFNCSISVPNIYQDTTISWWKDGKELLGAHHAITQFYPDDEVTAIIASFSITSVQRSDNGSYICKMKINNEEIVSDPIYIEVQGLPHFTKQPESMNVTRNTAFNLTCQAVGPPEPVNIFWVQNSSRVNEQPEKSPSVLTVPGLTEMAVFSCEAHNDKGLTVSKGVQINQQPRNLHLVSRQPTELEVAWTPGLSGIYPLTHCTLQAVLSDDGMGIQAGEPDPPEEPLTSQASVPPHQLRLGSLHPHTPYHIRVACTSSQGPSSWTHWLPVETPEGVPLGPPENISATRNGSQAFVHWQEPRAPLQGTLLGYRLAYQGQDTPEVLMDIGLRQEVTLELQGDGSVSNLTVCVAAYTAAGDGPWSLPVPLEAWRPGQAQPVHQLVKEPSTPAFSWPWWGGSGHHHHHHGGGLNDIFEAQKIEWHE

T3: Full Axl (ECD domain of human Axl) (human, UniProt P30530 26-451)
T3 construct: also called human Axl ECD
T3 sequence: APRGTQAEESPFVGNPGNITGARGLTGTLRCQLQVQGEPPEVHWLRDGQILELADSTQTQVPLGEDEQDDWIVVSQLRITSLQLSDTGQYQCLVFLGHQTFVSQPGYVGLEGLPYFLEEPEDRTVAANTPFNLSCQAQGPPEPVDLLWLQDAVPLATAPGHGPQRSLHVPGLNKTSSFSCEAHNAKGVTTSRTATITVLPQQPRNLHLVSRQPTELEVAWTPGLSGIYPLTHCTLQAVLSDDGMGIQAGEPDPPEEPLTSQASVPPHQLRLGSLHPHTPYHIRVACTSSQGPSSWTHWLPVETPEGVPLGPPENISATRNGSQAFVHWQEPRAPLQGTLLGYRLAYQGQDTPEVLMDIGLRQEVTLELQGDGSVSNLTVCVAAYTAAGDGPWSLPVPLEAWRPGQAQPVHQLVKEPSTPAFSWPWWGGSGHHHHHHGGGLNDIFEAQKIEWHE

T4: His tag-conjugated recombinant ProS (human, UniProt P07225 42-676, limits assumed)
T4 construct: bought; also called Protein S; ProS1 (R&D systems, Cat #9489-PS-100)
T4 sequence (looked up): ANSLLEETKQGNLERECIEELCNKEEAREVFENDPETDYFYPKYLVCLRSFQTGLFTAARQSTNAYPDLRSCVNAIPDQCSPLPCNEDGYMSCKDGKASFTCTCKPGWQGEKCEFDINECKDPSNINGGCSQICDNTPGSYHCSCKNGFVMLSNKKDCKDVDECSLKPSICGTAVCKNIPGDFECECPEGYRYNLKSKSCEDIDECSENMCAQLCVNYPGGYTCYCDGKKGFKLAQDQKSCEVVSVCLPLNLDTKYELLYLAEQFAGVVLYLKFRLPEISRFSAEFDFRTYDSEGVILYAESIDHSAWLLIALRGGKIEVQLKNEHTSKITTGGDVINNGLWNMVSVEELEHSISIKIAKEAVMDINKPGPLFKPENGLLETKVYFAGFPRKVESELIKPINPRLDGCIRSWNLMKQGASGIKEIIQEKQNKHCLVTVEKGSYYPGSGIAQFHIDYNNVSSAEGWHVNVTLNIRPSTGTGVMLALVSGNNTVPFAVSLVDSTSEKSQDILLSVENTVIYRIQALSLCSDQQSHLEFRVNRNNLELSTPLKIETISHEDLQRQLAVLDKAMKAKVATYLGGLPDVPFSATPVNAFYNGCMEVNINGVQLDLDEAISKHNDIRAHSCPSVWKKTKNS

T5: endogenous murine MerTK on bone marrow-derived macrophages (mouse, UniProt Q60805 19-994)
T5 construct: whole, on cells; MFI on MerTK KO BMDM subtracted; also called BMDM WT-KO
T5 sequence (looked up): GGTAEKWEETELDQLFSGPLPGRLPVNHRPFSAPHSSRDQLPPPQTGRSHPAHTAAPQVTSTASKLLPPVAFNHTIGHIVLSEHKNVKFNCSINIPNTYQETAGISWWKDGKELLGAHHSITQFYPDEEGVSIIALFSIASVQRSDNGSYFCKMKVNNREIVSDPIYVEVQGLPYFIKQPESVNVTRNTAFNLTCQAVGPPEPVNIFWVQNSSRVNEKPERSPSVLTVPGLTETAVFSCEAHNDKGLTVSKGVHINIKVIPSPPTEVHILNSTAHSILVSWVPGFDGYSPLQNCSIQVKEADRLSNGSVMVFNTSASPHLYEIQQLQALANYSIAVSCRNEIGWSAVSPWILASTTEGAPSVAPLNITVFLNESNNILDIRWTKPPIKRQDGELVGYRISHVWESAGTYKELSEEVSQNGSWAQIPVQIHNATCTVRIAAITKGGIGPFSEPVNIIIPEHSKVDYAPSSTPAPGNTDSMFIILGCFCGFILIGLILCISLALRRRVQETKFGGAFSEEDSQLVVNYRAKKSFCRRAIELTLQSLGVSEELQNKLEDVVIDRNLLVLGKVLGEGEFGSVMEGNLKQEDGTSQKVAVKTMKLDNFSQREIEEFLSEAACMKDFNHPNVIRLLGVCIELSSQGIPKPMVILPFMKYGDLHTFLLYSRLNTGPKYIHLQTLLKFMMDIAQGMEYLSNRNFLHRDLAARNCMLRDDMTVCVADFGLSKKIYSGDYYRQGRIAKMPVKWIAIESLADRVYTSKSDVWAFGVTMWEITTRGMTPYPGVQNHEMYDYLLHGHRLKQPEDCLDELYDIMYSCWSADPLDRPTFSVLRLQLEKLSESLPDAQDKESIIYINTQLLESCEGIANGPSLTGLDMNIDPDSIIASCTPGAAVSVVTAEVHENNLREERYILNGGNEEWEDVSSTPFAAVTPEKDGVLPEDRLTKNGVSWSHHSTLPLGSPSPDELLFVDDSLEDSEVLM

T6: mouse MerTK overexpressed on CHO cells (mouse, UniProt Q60805 19-994)
T6 construct: whole, on cells; also called CHO-muMerTK OE
T6 sequence (looked up): T5 sequence (looked up)

B1: MTK-217 (antibody, human IgG1, V domains shown)
VH: QVQLQQPGTEVVKPGASVKMSCRASGYTFTSYWITWVKQRPGQGLEWIGDIHPGSGINNYNEKFRSKATLTVDTSSSTVYMELSSLTSEDSAVYYCAKGGYYGSSYYVMDYWGQGTSVTVSS
VL: DILLTQSPAILSVSPGERVSFSCRASQTIGTSIHWYQQRTNDSPRLLIKYASESISGIPSRFSGSGSGTDFTLSINSVESEDIADYYCQQSNDWPYTFGGGTKLEIK
B2: MTK-232 (antibody, human IgG1, V domains shown)
VH: EVQLQESGPSLVKPSQTLSLTCSVTGDSITSGYWNWIRKFPGNKLEYMGYINYSGSTNYNPSLKSRISITRDTSKNQYYLQLNSVTTEDTATYYCARWNYLYYFDYWGQGTTLTVSS
VL: DSVMTQSHKFMSTLVGDRVSITCKASQDVGTAVAWYQQKPGQSPKVLIYWASTRHTGVPDRFTGSGSGTDFTLTITNVQSEDLADYFCHQYSTYPYTFGGGTKLEIK
B3: MTK-205 (antibody, human IgG1, V domains shown)
VH: EVQLQQSGPELVKPGASVKISCKTSGYTFTEYIMHWVKQSHGKSLEWIGGINPNNLGIIYNQKFKGKATLTVDKSSSTAYMELRSLTSEDSEVYYCARDGYFGFDYWGQGTTLKVSS
VL: DIVMTQSHKFMSTSVGDRVSITCKASQDVGTSVAWYQQKPGHSPKLLIYWTSTRRTGVPDRFTGSGSGTDFTLTISNVQSEDLADYFCHQYNSYPLTFGAGTKLELK

Assays:
[1] = biological target: T1, recombinant murine MerTK extracellular …; assay: SPR Carterra LSA, Ab immobilised
Experimental: Binding kinetics of anti-MerTK IgG1 antibodies of the present disclosure to human, cyno, and murine MerTK were evaluated using a Carterra LSA instrument (Carterra, Salt Lake City, UT). […] A HC200M sensor chip (Carterra) was activated using the single channel flow cell with a 7-minute injection of a 1:1:1 mixture of 100 mM MES pH 5.5, 100 mM sulfo-NHS, 400 mM EDC (all reconstituted in MES pH 5.5; 100 μl of each mixed in vial immediately before running assay). After switching to the multi-channel array flow cell, the antibodies were injected over the activated chip in three 96-spot arrays for 10 minutes each. The remaining unconjugated active groups on the chip were then blocked by injecting 1M Ethanolamine pH 8.5 (Carterra) for 7 minutes using the single channel flow cell. The resulting sensor chip contained three spots for each antibody, at three different densities. Two independent experiments were performed as follows, resulting in an N of between one and six determinations for each antibody. Spots that yielded less than 25 RU of analyte binding were excluded from further analysis.
After priming with running buffer (HBS-TE, Carterra) with 0.5 mg/ml BSA (Sigma), the immobilized anti-MerTK antibodies were tested for their ability to bind to several forms of recombinant MerTK extracellular domain, including human, cynomolgus, and mouse orthologs as described above. Estimates of affinity were generated by injecting each analyte over the entire antibody array using the single channel flow cell. MerTK analytes were diluted with running buffer, in a series of six, three-fold serial dilutions starting from 1 μM for human and cynomolgus MerTK, and 600 nM for mouse MerTK. Analytes were injected for 5 minutes, and dissociation was followed for 10 minutes. After each analyte injection, antibodies were regenerated with either Protein A/G Elution Buffer (Thermo) with 1M NaCl (Teknova), or with 10 mM Glycine pH 2.5. Three buffer blanks were run between each series (one species per series). Data were processed and analyzed using NextGenKIT high-throughput kinetics analysis software (Carterra).

[2] = biological target: T2, MerTK N-terminal ECD Half-and-half …; assay: SPR, construct supernatant over immobilised Ab
Experimental: (§1) Binding of anti-MerTK antibodies of the present disclosure to these domain-swapped chimera or deletion mutants was tested by Surface Plasmon Resonance (SPR) using Carterra LSA. Purified anti-MerTK antibodies were immobilized in duplicate on a HC30M chip (Carterra) by amine coupling, following the manufacturer's instructions (described previously).
(§2) Supernatants containing the constructs were diluted 1:1 with running buffer containing 0.5 mg/mL BSA (HBS-TE, Carterra; BSA, Sigma) and injected over the immobilized antibodies. The surface was regenerated with 10 mM Glycine pH2.0 after each construct injection. Sensorgrams were analyzed using Carterra Epitope software to identify patterns of construct binding. Loss of binding to MerTK constructs with domains deleted or swapped in from Axl and/or gain of binding to Axl constructs with MerTK domains swapped in were evaluated. Data from these studies were used to construct a domain binding map for anti-MerTK antibodies and their binding to various domains of human MerTK.

[3] = biological target: T3, Full Axl (ECD domain of human Axl); assay: SPR (data not shown)
Experimental: as §1, §2

[4] = biological target: T4, His tag-conjugated recombinant ProS; assay: ELISA, captured Ab, ProS-His 10 ug/ml, no MerTK
[5] = biological target: T5, endogenous murine MerTK on bone …; assay: FACS, mouse BMDM, WT minus MerTK KO
Experimental: (§3) To determine whether recombinant anti-human MerTK antibodies of the present disclosure bind to human MerTK endogenously expressed on SK-MEL-5 cells and CHO cells overexpressing mouse MerTK (CHO-muMerTK OE cells), as compared to A375 and parental CHO cells as negative controls, the following experiments were performed. SK-MEL-5 cells, A375 cells, CHO-muMerTK OE cells, and CHO parental cells were plated at 100,000 cells/well. Anti-MerTK antibodies were added to the cells at 10 μg/ml. After 60 minutes on ice, cells were washed and then stained with PE-conjugated goat anti-human IgG antibody (Southern Biotech Cat #2040-09, Birmingham, AL) in the presence of Fc block solution on ice for 30 minutes, and then washed twice with cold FACS buffer (2% FBS in PBS). Mouse anti-human MerTK-PE conjugated (Biolegend, Clone 590H11G1E3) or anti-mouse MerTK-PE conjugated (ThermoFisher, Clone DS5MMER) antibodies were used as positive controls. Stained cells were acquired on a BD FACS Canto II cytometer and the mean fluorescence intensity (MFI) was calculated with FlowJo.
To confirm anti-MerTK antibody binding to endogenous murine MerTK, bone marrow-derived macrophages (BMDM) were isolated from MerTK wild type (WT) and knockout (KO) mice (The Jackson Laboratory, Cat #011122) using standard protocols. Briefly, cells isolated from the bone marrow were plated in the presence of 50 ng/ml M-CSF (R&D Systems, Cat #416-ML) for seven days to allow for differentiation into macrophages. Cell staining, FACs, and MFI were performed and calculated as described above.

[6] = biological target: T6, mouse MerTK overexpressed on CHO cells; assay: FACS, CHO-muMerTK OE cells, 10 ug/ml
Experimental: as §3

Row | Binder | binding result [1] | binding result [2] | binding result [3] | binding result [4] | MFI [5] [MFI] | MFI [6] [MFI]
1 | B1 | no binding (tested: analyte up to 600 nM) | no binding | no binding | – | – | –
2 | B2 | no binding (tested: analyte up to 600 nM) | – | – | binds | 412 | –
3 | B3 | – | no binding | no binding | – | 737 | 240
